B1: FBXO39 (parent)
chain: RVFKARIYTNRYETNEEDKTLQEI

Variants of: B1
Assay: protein stability index of a GFP-peptide fusion (GPS, HEK-293T) (PSI 1-6); higher = more stable
Conditions: c terminus: a fixed tail appended
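Further: lentivirally expressed fusions sorted by FACS into six bins by GFP to DsRed ratio, PSI derived from sequencing read proportions per bin multiplied by bin number.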

Protein stability index, by site and new letter:
E13: I 1.92, W 2.53, S 2.81, T 2.15, N 2, G 2.81, R 2.79, V 1.99, A 3.08, F 2.07, D 2.48, Y 1.69, H 1.85, K 2.4, M 2.6, L 3.1, Q 2.98
N10: T 2.45, V 2.15, C 2.29, H 2.82, F 1.93, S 3.06, E 3.31, P 2.21, I 2.73, R 2.6, D 2.61, A 2.31, K 3.01, M 3.04, Q 3.36, W 2.2, G 2.75, L 2.11
N15: M 3.15, G 2.5, L 2.27, T 3, A 2.92, W 2.61, Y 2.06, S 3.14, K 2.28, D 2.86, H 3.27, Q 2.55, P 3.01, I 2.9, V 2.12, E 2.96, C 1.86, F 1.99
E17: D 3.12, P 2.41, T 2.83, K 2.24, G 1.4, H 2.02, Q 2.33, L 2.41, I 1.59, R 2.43, F 1.63, C 2.03, S 2.1, M 1.89, N 1.98
T9: D 3.38, M 3.24, L 2.54, H 2.47, F 1.82, I 2.21, Q 2.73, G 2.49, Y 2.16, W 1.92, R 3.04, P 3.15, V 2.32, K 3.08, A 3.18, S 2.18, N 2.87, E 3.24
Y12: N 3.13, H 2.79, F 3.33, W 2.34, D 3.89, M 2.13, I 3.29, G 3.13, K 2.99, Q 3.88, T 3.29, A 3.15, P 2.91, C 2.07, E 3.58, L 2.1, S 3.36
R11: H 2.34, N 2.53, T 3.75, W 2.19, P 3.36, C 2.05, Q 3.2, G 3.36, Y 2.5, A 2.01, K 2.88, M 2.93, V 2.18, S 3.38, D 3.23, L 2.59, I 2.46, E 3.57
T14: F 2.52, S 3.12, L 3.06, V 2.06, K 2.5, Y 2.67, I 2.28, C 2, A 1.65, M 3.75, P 3.2, W 1.66, N 2.21, D 3.34, R 2.36, H 2.5, E 2.62, Q 2.62, G 2.29
E16: A 2.2, V 1.92, C 2.38, T 2.28, Y 1.29, L 1.75, F 1.45, N 1.74, P 1.89, R 2.33, H 2.58, W 2.27, I 3.1, Q 2.08, S 2.6, D 2.88, G 2.33
Y8: R 3.15, P 2.45, V 3.08, L 3.21, S 3.13, N 3.97, Q 2.77, M 2.77, W 2.16, T 2.93

Reference: the supplement of paper PMC10567573
